Data set [1] has as its target T1, hnRNPLL RRM1 V136D (thunder) (Mus musculus, UniProt Q921F4 109-213, V136D).
T1 sequence: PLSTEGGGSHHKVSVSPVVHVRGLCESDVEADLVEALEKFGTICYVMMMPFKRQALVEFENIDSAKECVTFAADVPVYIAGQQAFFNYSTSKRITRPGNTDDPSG
Nature of the data set: ITC. (Isothermal titration calorimetry measures the heat released or taken up as one component is titrated into another.)

For data set [2], the target named is T2, hnRNPLL RRM1 WT (Mus musculus, UniProt Q921F4 109-213).
T2 sequence: T1 sequence with D28V
Nature of the data set: ITC.

For data set [3], the target named is T1, hnRNPLL RRM1 V136D (thunder). Briefly: NMR titration.
For data set [4] the target is unchanged. Briefly: NMR titration. This is another data set of the same source.
Data set [5] has the same target. Nature of the data set: NMR titration. The source holds these as a separate data set.
Data set [6] has as its target T2, hnRNPLL RRM1 WT. Briefly: NMR titration.
In data set [7] the target is T2, hnRNPLL RRM1 WT. Nature of the data set: NMR titration. The source holds these as a separate data set.
Data set [8] has as its target T2, hnRNPLL RRM1 WT. Briefly: NMR titration. The source holds these as a separate data set.

Substitutions are numbered along the chain they refer to.

As a reminder, the Kd is the equilibrium constant for the complex coming apart. Consider CCUUACCUGCACGCA (ssRNA) [Ptprc exon 6 ARS 15-mer WT], for which the dissociation constant (Kd) is 3100 ± 1400 nM in data set [1]; 1900 ± 400 nM in the data set with hnRNPLL RRM1 WT [2]; 2000 ± 700 nM in data set [3]; 1000 ± 400 nM in data set [4]; 1100 ± 400 nM in data set [5]; 1500 ± 1300 nM with hnRNPLL RRM1 WT [6]. Also, the Kd with hnRNPLL RRM1 WT [7] was found to be 700 ± 700 nM; in the data set with hnRNPLL RRM1 WT [8], 100 nM.

(Values after publication PMC3057111.)
